Assay results reported in patent publication US20260167731A1 (DOMAIN THERAPEUTICS, published 2026).
Where “and” joins values, the source holds several entries; their conditions need not be identical. Equal values may be shown once.

Key:
human CCR8 [1] = target: T1, human CCR8 (human, UniProt P51685 1-355); experiment: cell-based or functional assay
[2] = target: pm2, modified CCR8 related peptide (human, sulfated tyrosine at Y16); experiment: ELISA on coated CCR8 peptide (500 ng/mL), OD [cont.]
Procedure: (§1) The specific binding properties of antibodies were evaluated by ELISA with coated CCR8 related peptides (500 ng/mL) in carbonate/bicarbonate buffer. Different peptides were used as described in Table 1 (see Example 1). Each anti-CCR8 mAb was tested at 1 μg/mL then diluted at 1/10. After an incubation at room temperature during 90 min, unbound mAbs were removed by washings. […] After washings, 3,3′,5,5′-tetramethylbenzidine (TMB) (Interchim, Montlugon, France) was added for 15 min. Then the optical density (OD) was determined by using a multiplate reader (Tecan, Lyon, France) and correlated with mAb reactivity on the panel of coated peptides.

[3] = target: pm5, modified CCR8 related peptide (human, sulfated tyrosines at Y15 and Y17); experiment: as above
Procedure: as §1

[4] = target: pm6, modified CCR8 related peptide (human, sulfated tyrosines at Y16 and Y17); experiment: as above
Procedure: as §1

[5] = target: pm1, modified CCR8 related peptide (human, sulfated tyrosine at Y15); experiment: as above
Procedure: as §1

[6] = target: pm8, modified CCR8 related peptide (human, sulfated tyrosines at Y15, Y16 and Y17); experiment: as above
Procedure: as §1

[7] = target: pm4, modified CCR8 related peptide (human, sulfated tyrosines at Y15 and Y16); experiment: as above
Procedure: as §1

[8] = target: T2, pwt1, unmodified CCR8 related peptide (human, none (non-sulfated Y15, Y16, Y17)); experiment: as above
T2 construct: First 34 amino acids of human CCR8, synthetic; also called unmodified peptide
Procedure: as §1

[9] = target: pm3, modified CCR8 related peptide (human, sulfated tyrosine at Y17); experiment: as above
Procedure: as §1

human CCR8 [10] = target: T1, human CCR8; experiment: flow cytometry, hCCR8 transfected CHOK1 cells
Procedure: (§2) The same staining protocol was applied on human CCR8 transfected CHO cell line versus wild type CHO cell line, cutaneous T cell lymphoma HUT78 cell line and human activated T cell model.
(§3) Briefly, 1·10⁵ cells per well in a 96 well plate were incubated with a dilution of unconjugated anti-CCR8 mAb at 10 μg/mL then diluted at 1/3.33, 4 dilution points (during 30 min at 4° C.). In human activated T cells model, prior to mAb incubation, cells were first incubated with 200 nM of hCCL1 (R&D Systems, Minneapolis, MN, USA) or buffer PBS (Invitrogen by Thermofisher Scientific, Illkirch-Graffenstaden, France) supplemented by 2% Fetal Bovine Serum (Invitrogen by Thermofisher Scientific, Illkirch-Graffenstaden, France) and 2 mM EDTA (Invitrogen by Thermofisher Scientific, Illkirch-Graffenstaden, France) during 1 hour at 4° C. To determine EC50 value, 8 concentrations of anti-CCR8 mAb were tested. Unbound antibodies were washed away with PBS (Invitrogen by Thermofisher Scientific, Illkirch-Graffenstaden, France) supplemented by 2% Fetal Bovine Serum (Invitrogen by Thermofisher Scientific, Illkirch-Graffenstaden, France) and 2 mM EDTA (Invitrogen by Thermofisher Scientific, Illkirch-Graffenstaden, France). Subsequently, cells are centrifuged (5 min at 400 g) and bound antibody is detected with F(ab′)₂-Goat anti-Mouse IgG (H+L) Cross-Adsorbed Secondary Antibody, Alexa Fluor 488 (dilution 1/500) (Invitrogen by Thermofisher Scientific, Illkirch-Graffenstaden, France) or with F(ab′)₂-Goat anti-Human IgG Fc Secondary Antibody, PE (Invitrogen by Thermofisher Scientific, Illkirch-Graffenstaden, France) (dilution 1/1000) at 4° C. for 30 min. Detection reagent is washed away and cells are centrifuged (5 min at 400 g) and resuspended in 30 μL PBS. Bound detection antibody is quantified on a MacsQuant16 (Miltenyi, Gladbach, Germany) (B1 or B2 channel, 5000 events per acquisition). During the experiment, the respective isotype mAb controls (mouse IgG1, mouse IgG2a, mouse IgG2b, mouse IgG3 or human IgG1) (Biolegend, Amsterdam, The Netherlands) are included to exclude any unspecific binding events.

human CCR8 [11] = target: T1, human CCR8; experiment: cell-based or functional assay; remark: listed apart in the source
human CCR8 [12] = target: T1, human CCR8; experiment: cell-based or functional assay; remark: listed apart in the source
human CCR8 [13] = target: T1, human CCR8; experiment: flow cytometry, inhibition of hCCL1-AF647 binding to hCCR8 CHO cells
Procedure: The hCCR8 transfected CHO cell line was dispatched at a density of 1·10⁵ per well in a 96-well plate. Cells were incubated for 30 min at 4° C. with or without anti-CCR8 mAb tested at 10 μg/mL then diluted at 1/3. Unbound antibodies were washed away with PBS (Gibco, Villebon-sur-Yvette, France) supplemented by 2% Fetal Bovine Serum (Invitrogen by Thermofisher Scientific, Illkirch-Graffenstaden, France) and 2 mM EDTA. […] After washing unbound ligands, CCL1 bound detection is quantified on a MacsQuant16 (Miltenyi, Gladbach, Germany) (R1 channel, 5 000 events per acquisition).
For IC₅₀ determination, a concentration response curve is performed using 8 concentrations of mAb. Curves are fitted and IC₅₀ of CCL1 binding blocking activity is calculated using the sigmoidal dose-response (variable slope) model on GraphPad Prism 9 (GraphPad Software, San Diego, CA, USA).

human CCR8 [14] = target: T1, human CCR8; experiment: cell-based or functional assay; remark: listed apart in the source
human CCR8 [15] = target: T1, human CCR8; experiment: cell-based or functional assay; remark: listed apart in the source
human CCR8 [16] = target: T1, human CCR8; experiment: flow cytometry, HUT78 cells (endogenous CCR8)
Procedure: as §2, §3
EC50 values were determined via nonlinear fit “log(agonist)vs.response−Variable slope (four parameters)” function of Graphpad prism. EC50 values were not constantly determined in the same experiments.

hCCR8 SNAP-tag [17] = target: T3, hCCR8 SNAP-tag (human, UniProt P51685 1-355, SNAP-tag labelled with Lumi4-Terbium); experiment: HTRF Tag-lite, inhibition of hCCL1-AF647 binding to SNAP-tag hCCR8 on HEK-293
T3 construct: also called human CCR8 engineered with a SNAP-tag at the N-terminus; not shown: SNAP-tag at the N-terminus
Procedure: The inhibition of CCL1 binding to hCCR8 was evaluated with the Tag-Lite® technology from Cisbio (Revvity). Human CCR8 is engineered with a SNAP-tag at the N-terminus of the GPCR. hCCR8 SNAP-tag is transiently transfected on HEK-293 cell line using FuGene® (Promega, Madison, WI, USA). 48 hours after transfection, cells are labeled with the substrate Lumi4-Terbium® (Cisbio, Codolet, France) which covalently reacts with the SNAP-tag, for 1 h at 37° C. […] The Kd is previously obtained in a saturation binding assay on the same cells. […] The plate is next incubated at 21° C. for 2 h. Detection of HTRF signal is performed on the multiplate reader EnVision (PerkinElmer, Waltham, MA, USA). The HTRF (665/620) ratio is calculated by EnVision software, the data exported are considered as the total binding. The specific binding is calculated then by subtracting the non-specific signal from the total binding. The Ki and IC₅₀are calculated using the “One site—Fit Ki” and “One site—FitlogIC50” from GraphPad Prism 9 (Graphpad Software, San Diego, CA, USA), respectively.

hCCR8 SNAP-tag [18] = target: T3, hCCR8 SNAP-tag; experiment: cell-based or functional assay

Chain of pm5, modified CCR8 related peptide (human, sulfated tyrosines at Y15 and Y17) (peptide, as listed by the source): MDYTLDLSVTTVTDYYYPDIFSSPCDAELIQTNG
T2 sequence (peptide, as listed by the source): as above
Chain of pm2, modified CCR8 related peptide (human, sulfated tyrosine at Y16) (peptide, as listed by the source): as above
Chain of pm6, modified CCR8 related peptide (human, sulfated tyrosines at Y16 and Y17) (peptide, as listed by the source): as above
Chain of pm4, modified CCR8 related peptide (human, sulfated tyrosines at Y15 and Y16) (peptide, as listed by the source): as above
Chain of pm3, modified CCR8 related peptide (human, sulfated tyrosine at Y17) (peptide, as listed by the source): as above
Chain of pm1, modified CCR8 related peptide (human, sulfated tyrosine at Y15) (peptide, as listed by the source): as above
Chain of pm8, modified CCR8 related peptide (human, sulfated tyrosines at Y15, Y16 and Y17) (peptide, as listed by the source): as above

Binder	Top plateau values in presence of 5 µg/mL mAb (% of hCCL1 (100 nM)), protocol #3 (human CCR8 [1]) [%]	binding result [2]	binding result [3]	binding result [4]	binding result [5]	binding result [6]	binding result [7]	binding result [8]	binding result [9]	% positive cells (human CCR8 [10]) [%]	MFI fold change to isotype ctrl (human CCR8 [10]) [fold]	hCCL1 (100 nM) residual response in %, Protocol #2, mAb 0.08 µg/mL (0.53 nM) (human CCR8 [11]) [%]	hCCL1 (100 nM) residual response in %, Protocol #2, mAb 0.4 µg/mL (2.67 nM) (human CCR8 [11]) [%]	hCCL1 (100 nM) residual response in %, Protocol #2, mAb 10 µg/mL (66.7 nM) (human CCR8 [11]) [%]	hCCL1 (100 nM) residual response in %, Protocol #3, mAb 0.05 µg/mL (0.33 nM) (human CCR8 [11]) [%]	hCCL1 (100 nM) residual response in %, Protocol #3, mAb 0.5 µg/mL (3.33 nM) (human CCR8 [11]) [%]	hCCL1 (100 nM) residual response in %, Protocol #3, mAb 5 µg/mL (33.3 nM) (human CCR8 [11]) [%]	IC50, CCL1 induced hCCR8 Gi2 signaling (BRET, HEK-293) (human CCR8 [12])	IC50 (human CCR8 [13])	also measured
anti-CCR8 mAb 2-4 (antibody, V domains shown) VH: EVQLQQSGPELVKPGASVKISCKTSGYTFTEYTIHWVKQSHGESLEWVGGINPNNGNTRYDQKFKGKATLTIDKSSSPAYMELRSLTSEDSAVYYCARVARSSGSGPYAMDYWGQGTSVTVSS VL: DVVMTQTPLSLPVSLGDQASISCRCTQSLLHTNGDTYLHWYLQKPGQSPKLLIYKVSNRFSGVPDRFSGSGSGTDFTLKISRVEAEDLGVYFCSQSTHVPYTFGGGTKLEIK	855	binds	binds	binds	binds	binds	binds	binds	binds	56.2	4.78	104	46	28	80	57	45	0.046 µg/mL and 0.306 nM	0.6 µg/mL and 4.01 nM	
anti-CCR8 mAb 2-11 (antibody, V domains shown) VH: EVQLQQSGPELVKPGASVKISCKASVYSFTGSYMHWVKQSHVKSLEWIGRINPYNGATSYNQNFKDKASLTVDKSSSTAYMELHSLTSEDSAVYYCATTLLRLLDYWGQGTTLTVSS VL: DIVMTQAAFSNPVTLGTSASISCRSSKSLLHSNGITYLYWYLQKPGQSPQLLIYQMSNLASGVPDRFSSSGSGTDFTLRISRVEAEDVGVYYCAQNLELPWTFGGGTKLEIK	292									34.7	2.34	97	96	84	96	81	73	0.092 µg/mL and 0.616 nM	6.41 µg/mL and 43 nM	IC50, CCL1 induced hCCR8 Gi2 signaling (BRET) at pH 6.5 (human CCR8 [14]): 0.162 µg/ml and 1.08 nM; IC50, CCL1 induced hCCR8 Gi2 signaling (BRET) at pH 7.4 (human CCR8 [14]): 0.152 µg/ml and 1.01 nM
humanized anti-CCR8 mAb 2-14 (antibody, human IgG1, kappa, V domains shown, Humanized, human IgG1 / kappa) VH: QVQLVQSGPEVVKPGASVKVSCKTSGYTFTEYTIHWVRQAPGQSLEWVGGINPNNGNTRYDQKFQGRVTITRDKSASTAYMELRSLTSEDTAVYYCARVARSSGSGPYAMDYWGQGTTVTVSS VL: DVVMTQSPLSLPVTLGDQASISCRCSQSLLHTNGDTYLHWYLQRPGQSPRLLIYKVSNRFSGVPDRFSGSGSGTDFTLKISRVEAEDVGVYFCSQSTHVPYTFGGGTKVEIKR		binds	binds	binds	binds	binds	binds	binds	binds			67	55	32	86	60	42	0.022 µg/mL and 0.147 nM		ADCC % Max lysis, HUT78 targets, NK cells Donor 3 (human CCR8 [15]): 15%; ADCC % Max lysis, HUT78 targets, NK cells Donor 4 (human CCR8 [15]): 16%; ADCC EC50, HUT78 targets, NK cells Donor 3 (human CCR8 [15]): 0.505 nM; ADCC EC50, HUT78 targets, NK cells Donor 4 (human CCR8 [15]): 0.573 nM; % of labelled cells (human CCR8 [16]): 96%; IC50 (hCCR8 SNAP-tag [17]): 0.04 µg/mL; Ki (hCCR8 SNAP-tag [17]): 0.02 µg/mL; % of internalization at 1 µg/ml (CCL1 at 300 nM = 100%), HTRF (hCCR8 SNAP-tag [18]): 44%; % of internalization at 10 µg/ml (CCL1 at 300 nM = 100%), HTRF (hCCR8 SNAP-tag [18]): 29%
